# Laboratory results as given in the Immune Epitope Database (IEDB).
# Key:
# HLA-B*07:02 = experiment: IEDB peptide-MHC binding, purified MHC/direct/fluorescence; filed as Kd, often an IC50 or EC50 that approximates it; ≥ and ≤ were set here for values at or beyond the usual limits of such assays
# HLA-C*03:03 = experiment: as above; details: source organism: Mammarenavirus machupoense
# HLA-A*01:01 [1] = experiment: IEDB peptide-MHC binding, purified MHC/competitive/fluorescence; filed as Kd, often an IC50 or EC50 that approximates it; ≥ and ≤ were set here for values at or beyond the usual limits of such assays; details: source organism: Influenza A virus (A/swine/Ohio/24366/2007(H1N1))
# HLA-B*44:02 = experiment: IEDB peptide-MHC binding, purified MHC/direct/fluorescence; filed as Kd, often an IC50 or EC50 that approximates it; ≥ and ≤ were set here for values at or beyond the usual limits of such assays; details: source organism: Brucella abortus
# HLA-B*08:02 = experiment: as above; details: source organism: Brucella suis 1330
# HLA-B*18:01 = experiment: as above; details: source organism: Brucella abortus
# HLA-A*02:01 = experiment: as above
# HLA-B*40:01 = experiment: as above; details: source organism: Brucella abortus
# HLA-B*27:05 = experiment: as above; details: source organism: Brucella abortus
# HLA-B*46:01 = experiment: as above; details: source organism: Brucella abortus
# HLA-A*24:02 = experiment: as above; details: source organism: Brucella abortus
# HLA-A*01:01 [2] = experiment: as above; details: source organism: Brucella abortus
# HLA-B*15:01 = experiment: as above; details: source organism: Brucella abortus
# HLA-B*58:01 = experiment: as above; details: source organism: Brucella abortus
# HLA-B*08:01 = experiment: as above; details: source organism: Brucella suis 1330
# HLA-A*26:01 = experiment: as above; details: source organism: Brucella suis 1330
# HLA-A*03:01 = experiment: as above; details: source organism: Brucella abortus
# HLA-C*05:01 = experiment: as above; details: source organism: Vaccinia virus Copenhagen
# HLA-A*69:01 = experiment: as above; details: source organism: Camelpox virus M-96
# [3] = source organism: Brucella abortus
sequence,measurement,setting,value
AAVKAGASI,Kd,HLA-B*07:02; source organism: Mammarenavirus juninense,2.06 µM
same,Kd,HLA-C*03:03,≤ 0.001 µM
STASSWSY,Kd,HLA-A*01:01 [1],≥ 20 µM
LTDAFHGYH,Kd,HLA-B*44:02,≥ 20 µM
same,Kd,HLA-B*08:02,≥ 20 µM
same,Kd,HLA-B*18:01,≥ 20 µM
same,Kd,HLA-A*02:01; [3],≥ 20 µM
same,Kd,HLA-B*07:02; [3],≥ 20 µM
same,Kd,HLA-B*40:01,≥ 20 µM
same,Kd,HLA-B*27:05,≥ 20 µM
same,Kd,HLA-B*46:01,≥ 20 µM
same,Kd,HLA-A*24:02,≥ 20 µM
same,Kd,HLA-A*01:01 [2],0.0754 µM
same,Kd,HLA-B*15:01,≥ 20 µM
same,Kd,HLA-B*58:01,≥ 20 µM
same,Kd,HLA-B*08:01,≥ 20 µM
same,Kd,HLA-A*26:01,≥ 20 µM
same,Kd,HLA-A*03:01,≥ 20 µM
YFDDVTAFL,Kd,HLA-A*02:01; source organism: Camelpox virus M-96,0.005 µM
same,Kd,HLA-C*05:01,0.014 µM
same,Kd,HLA-A*69:01,0.428 µM
